B1: mouse TIRR (6-211) (domain or fragment, M. musculus)
chain: GHMVPELKQISREEAMRLGPGWSHSCHAMLYAANPGQLFGRIPMRFSVLMQMRFDGLLGFPGGFVDRRFWSLEDGLNRVLGLGLGGLRLTEADYLSSHLTEGPHRVVAHLYARQLTLEQLHAVEISAVHSRDHGLEVLGLVRVPLYTQKDRVGGFPNFLSNAFVSTAKYQLLFALKVLNMMPSEKLAEALASATEKQKKALEKLLPPSS
notes: overhang left after TEV cleavage, printed as Gly-His-Met; TIRR (Nudt16L1), M. musculus, residues 6-211; Homodimer by ultracentrifugation and in the crystal; also called Nudt16L1; source: E. coli BL21-Codon PLUS(DE3)-RIPL, purified (Ni-NTA, TEV, heparin, Superdex200); not shown: His6, N-terminal, cleaved

Columns and labels:
human TIRR (6-211) = biological target: T1, human TIRR (6-211) (H. sapiens, UniProt Q9BRJ7 6-211); test: ITC; 200-400 μM 53BP1 Tudor domain (wt or mutant) injected into 200 μl of 22-44 μM TIRR or Nudt16 (wt or mutant); 25 °C; 20 mM Tris-HCl pH 7.5, 150 mM NaCl; single-site binding model; conditions: both partners purified
T1 construct: overhang left after TEV cleavage, printed as Gly-His-Met; TIRR (Nudt16L1), H. sapiens, residues 6-211; also called Nudt16L1; source: E. coli BL21-Codon PLUS(DE3)-RIPL, purified (Ni-NTA, TEV, heparin, Superdex200); not shown: His6, N-terminal, cleaved

mouse TIRR (6-211) [1] = biological target: B1; test: as above; conditions: both partners purified
mouse TIRR (6-211) [2] = biological target: B1; test: as above; conditions: both partners purified; remark: listed apart in the source
mouse TIRR (6-211) [3] = biological target: B1; test: AUC; sedimentation velocity (20 °C) and sedimentation equilibrium (16 °C); TIRR and 53BP1 Tudor premixed at 2:1 ratio; 20 mM Tris-HCl pH 7.5, 150 mM NaCl; conditions: both partners purified
mouse TIRR (6-211) [4] = biological target: B1; test: AUC; sedimentation velocity, 20 °C; TIRR and 53BP1 Tudor assembled in equal molar ratio; 20 mM Tris-HCl pH 7.5, 150 mM NaCl; conditions: both partners purified
mouse TIRR (6-211) [5] = biological target: B1; test: ITC; 200-400 μM 53BP1 Tudor domain (wt or mutant) injected into 200 μl of 22-44 μM TIRR or Nudt16 (wt or mutant); 25 °C; 20 mM Tris-HCl pH 7.5, 150 mM NaCl; single-site binding model; conditions: both partners purified; remark: listed apart in the source
[6] = biological target: the molecule itself; test: AUC; TIRR alone; 20 mM Tris-HCl pH 7.5, 150 mM NaCl; dimer

T1 sequence (Q9BRJ7 other isoform, or with tags, fused parts or gaps): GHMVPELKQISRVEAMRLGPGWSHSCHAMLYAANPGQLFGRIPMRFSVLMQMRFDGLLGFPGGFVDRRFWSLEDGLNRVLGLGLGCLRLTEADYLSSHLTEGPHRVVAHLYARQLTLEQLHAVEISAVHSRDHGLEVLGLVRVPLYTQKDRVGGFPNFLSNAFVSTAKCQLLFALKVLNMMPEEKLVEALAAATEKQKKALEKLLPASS

Kd (mouse TIRR (6-211) [5]) [µM]	Binder	other results
	53BP1 tandem Tudor domain (1484-1603) (domain or fragment, H. sapiens, overhang left after TEV cleavage, printed as Gly-His-Met; 53BP1 tandem Tudor domain, H. sapiens, residues 1484-1603; also called 53BP1 Tudor; 53BP1-Tudor WT; source: E. coli BL21-Codon PLUS(DE3)-RIPL, purified (Ni-NTA, TEV, Superdex200); not shown: His6, N-terminal, cleaved) GHMNSFVGLRVVAKWSSNGYFYSGKITRDVGAGKYKLLFDDGYECDVLGKDILLCDPIPLDTEVTALSEDEYFSAGVVKGHRKESGELYYSIEKEGQRKWYKRMAVILSLEQGNRLREQYGLG	Kd (human TIRR (6-211)): 0.9 µM; stoichiometry N (mouse TIRR (6-211) [1]): 1; Kd (mouse TIRR (6-211) [2]): 0.9 µM; stoichiometry N (mouse TIRR (6-211) [3]): 0.5 53BP1 Tudor per TIRR (printed as TIRR/53BP1 Tudor 2:1); stoichiometry N (mouse TIRR (6-211) [4]): 1 53BP1 Tudor per TIRR (printed as 2:2)
5.4	53BP1 Tudor D1521A (domain or fragment, H. sapiens, overhang left after TEV cleavage, printed as Gly-His-Met; 53BP1 tandem Tudor domain, H. sapiens, residues 1484-1603; source: E. coli BL21-Codon PLUS(DE3)-RIPL, purified as the wt protein; not shown: His6, N-terminal, cleaved) GHMNSFVGLRVVAKWSSNGYFYSGKITRDVGAGKYKLLFDAGYECDVLGKDILLCDPIPLDTEVTALSEDEYFSAGVVKGHRKESGELYYSIEKEGQRKWYKRMAVILSLEQGNRLREQYGLG	
12.7	53BP1 Tudor Y1500A (domain or fragment, H. sapiens, overhang left after TEV cleavage, printed as Gly-His-Met; 53BP1 tandem Tudor domain, H. sapiens, residues 1484-1603; source: E. coli BL21-Codon PLUS(DE3)-RIPL, purified as the wt protein; not shown: His6, N-terminal, cleaved) GHMNSFVGLRVVAKWSSNGAFYSGKITRDVGAGKYKLLFDDGYECDVLGKDILLCDPIPLDTEVTALSEDEYFSAGVVKGHRKESGELYYSIEKEGQRKWYKRMAVILSLEQGNRLREQYGLG	
1.5	53BP1 Tudor F1553A (domain or fragment, H. sapiens, overhang left after TEV cleavage, printed as Gly-His-Met; 53BP1 tandem Tudor domain, H. sapiens, residues 1484-1603; source: E. coli BL21-Codon PLUS(DE3)-RIPL, purified as the wt protein; not shown: His6, N-terminal, cleaved) GHMNSFVGLRVVAKWSSNGYFYSGKITRDVGAGKYKLLFDDGYECDVLGKDILLCDPIPLDTEVTALSEDEYASAGVVKGHRKESGELYYSIEKEGQRKWYKRMAVILSLEQGNRLREQYGLG	
15.4	53BP1 Tudor W1495A (domain or fragment, H. sapiens, overhang left after TEV cleavage, printed as Gly-His-Met; 53BP1 tandem Tudor domain, H. sapiens, residues 1484-1603; source: E. coli BL21-Codon PLUS(DE3)-RIPL, purified as the wt protein; not shown: His6, N-terminal, cleaved) GHMNSFVGLRVVAKASSNGYFYSGKITRDVGAGKYKLLFDDGYECDVLGKDILLCDPIPLDTEVTALSEDEYFSAGVVKGHRKESGELYYSIEKEGQRKWYKRMAVILSLEQGNRLREQYGLG	
4.7	53BP1 Tudor L1547A (domain or fragment, H. sapiens, overhang left after TEV cleavage, printed as Gly-His-Met; 53BP1 tandem Tudor domain, H. sapiens, residues 1484-1603; source: E. coli BL21-Codon PLUS(DE3)-RIPL, purified as the wt protein; not shown: His6, N-terminal, cleaved) GHMNSFVGLRVVAKWSSNGYFYSGKITRDVGAGKYKLLFDDGYECDVLGKDILLCDPIPLDTEVTAASEDEYFSAGVVKGHRKESGELYYSIEKEGQRKWYKRMAVILSLEQGNRLREQYGLG	
28.5	53BP1 Tudor Y1523A (domain or fragment, H. sapiens, overhang left after TEV cleavage, printed as Gly-His-Met; 53BP1 tandem Tudor domain, H. sapiens, residues 1484-1603; source: E. coli BL21-Codon PLUS(DE3)-RIPL, purified as the wt protein; not shown: His6, N-terminal, cleaved) GHMNSFVGLRVVAKWSSNGYFYSGKITRDVGAGKYKLLFDDGAECDVLGKDILLCDPIPLDTEVTALSEDEYFSAGVVKGHRKESGELYYSIEKEGQRKWYKRMAVILSLEQGNRLREQYGLG	
17.3	53BP1 Tudor L1547G (domain or fragment, H. sapiens, overhang left after TEV cleavage, printed as Gly-His-Met; 53BP1 tandem Tudor domain, H. sapiens, residues 1484-1603; source: E. coli BL21-Codon PLUS(DE3)-RIPL, purified as the wt protein; not shown: His6, N-terminal, cleaved) GHMNSFVGLRVVAKWSSNGYFYSGKITRDVGAGKYKLLFDDGYECDVLGKDILLCDPIPLDTEVTAGSEDEYFSAGVVKGHRKESGELYYSIEKEGQRKWYKRMAVILSLEQGNRLREQYGLG	
	B1	stoichiometry N [6]: 2
	53BP1 Tudor-UDR domain (1484-1631) (domain or fragment, H. sapiens, overhang left after TEV cleavage, printed as Gly-His-Met; 53BP1 Tudor-UDR domain, H. sapiens, residues 1484-1631; source: E. coli BL21-Codon PLUS(DE3)-RIPL, purified (Ni-NTA, TEV, Superdex200); not shown: His6, N-terminal, cleaved) GHMNSFVGLRVVAKWSSNGYFYSGKITRDVGAGKYKLLFDDGYECDVLGKDILLCDPIPLDTEVTALSEDEYFSAGVVKGHRKESGELYYSIEKEGQRKWYKRMAVILSLEQGNRLREQYGLGPYEAVTPLTKAADISLDNLVEGKRKRRS	Kd (mouse TIRR (6-211) [1]): 0.9 µM
